{"source": "patent US20170112792A1", "about": "“ENHANCED ATRA-RELATED COMPOUNDS DERIVED FROM STRUCTURE-ACTIVITY RELATIONSHIPS AND MODELING FOR INHIBITING PIN1” (Beth Israel Deaconess Medical Center, Inc., priority 2014, published 2017)", "biological_target": "pSer110 peptide (IRAKM residues 103-124 with Ser110 phosphorylated)", "sequence (peptide, as listed by the source limits assumed)": "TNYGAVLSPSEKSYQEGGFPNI", "experiment": "NMR titration, 1H-15N HSQC chemical shift changes"}
{"substance": "15N-labeled Pin1 WW domain (Pin1 residues 1-50) (from UniProt Q13526 1-50)", "values": [{"measurement": "Kd", "result": 60.7, "unit": "µM"}]}
